What all share (assay type): in vivo
Data set [1] is described as follows: Hypotensive effect in anesthetized rats. To be noted: sc. The method, then: The mono-methoxy 5 k PEG-PTH(1-34) prepared in Example 1(2) was also adjusted similarly to 36.5, 18.3 and 9.1 μg/mL (calculated as PTH(1-34)). The samples thus prepared were then stored on ice and restored to room temperature about 30 minutes before administration.
Female SD rats at 10 weeks of age (Charles River Japan, Inc.) were anesthetized by intraperitoneal administration of 50 mg/kg pentobarbital sodium (Abbott Laboratories). A catheter for blood pressure measurement and a catheter for anesthesia maintenance were inserted into the femoral artery and vein, respectively, of each rat. Anesthesia was maintained using a syringe pump (Terumo Corporation) to ensure continuous injection (at 22.5 mg/kg/hour) of pentobarbital sodium (powder form, Tokyo Kasei Kogyo Co., Ltd.) dissolved in physiological saline (Otsuka Pharmaceutical Co., Ltd.). On the other hand, each catheter for blood pressure measurement was filled with 100 U/mL heparin sodium (Novo Nordisk A/S) in physiological saline. To measure systemic blood pressure, a pressure transducer (Nihon Kohden Corporation) was connected to the catheter for blood pressure measurement and signals from the transducer were input to a blood pressure amplifier (Nihon Kohden Corporation). The resulting data were averaged for use as an indicator of systemic blood pressure. The output of systemic blood pressure was, in turn, input to a measuring unit for instantaneous heart rate (Nihon Kohden Corporation) to determine heart rate. These parameters were continuously recorded on a thermal pen recorder (Graphtec Corporation) at a speed of 5 mm/min. After surgery, an injection needle for administration of a test substance was inserted into the dorsal subcutaneous region of each rat. After each parameter had stabilized, test drugs were administered. […] This figure illustrates changes in blood pressure induced by administration of a negative control (buffer), 50 μg/kg hPTH (1-34) and 36.5 μg/kg 5 k PEG-PTH(1-34) in this order from the upper panel. In addition, the average value of blood pressure before PTH administration and the value at the maximum blood pressure drop after administration were measured for each case to determine the difference between these two values. […] The vertical axis represents the maximum blood pressure drop (mmHg) and the horizontal axis represents the amount of PTH administered.

Data set [2] is described as follows: Pharmacokinetics in rats by intravenous route. The settings on record: 80 μg/mL at 1 mL/kg. The method, then: (§1) Each sample was adjusted to 80 μg/mL by dilution with 25 mmol/L citrate-phosphate buffer (pH 5.0) containing 100 mmol/L NaCl and 0.05 vol % Tween 20 to give a solution for administration. Male SD rats at 6 weeks of age (CLEA Japan, Inc.) were provided for this experiment. Intravenous injection was performed on rats having polyethylene tubes (SP-31, Natsume Seisakusho Co., Ltd.) inserted into the femoral artery and vein. The solutions thus prepared were each administered at a dose of 1 mL/kg through a polyethylene tube inserted into the femoral vein, and blood was collected through a polyethylene tube inserted into the femoral artery before administration and at 5, 15, 30 and 45 minutes as well as 1, 2, 4, 6, 8 and 24 hours after administration. Subcutaneous administration was performed on rats having polyethylene tubes inserted into the femoral artery. The solutions prepared above were each subcutaneously administered at a dose of 1 mL/kg to the dorsal neck region of the rats, and blood was collected in the same manner as used for intravenous injection. These blood samples were centrifuged to collect plasma and stored at −40° C. until assayed for PTH(1-34) or PEG-PTH(1-34) levels.
(§2) The level of PTH(1-34) or PEG-PTH(1-34) was determined by RIA analysis using a Rat PTH IRMA Kit (Immutopics). A Cobra Quantum Model 5005 gamma counter (Packard) was used to measure radioactivity for each sample. The plasma level of PTH(1-34) or PEG-PTH(1-34) was calculated from a calibration curve prepared using PTH(1-34) or PEG-PTH(1-34). The Winnonlin program Ver. 2.1 (Scientific Consulting Inc.) was used to analyze the time course of changes in the calculated plasma PTH(1-34) or PEG-PTH(1-34) levels (FIG. 3: by intravenous route; FIG. 4: by subcutaneous route) to calculate the following as pharmacokinetic parameters: time required to reach the maximum plasma level (Tmax); maximum plasma level (Cmax); area under the curve of plasma levels (AUC); plasma half-life (t1/2); total body clearance (Cltotal); mean residence time in the body (MRT); and bioavailability (BA). […]

The nature of data set [3]: Hypercalcemic effect of PEG-PTH(1-34) in normal male BDF1 mice. The method, then: (§3) 2 k and 5 k PEG-PTH(1-34) were also adjusted similarly to 30 nmol/mL (calculated as PTH) and allowed to stand on ice immediately before administration.
(§4) Male BDF1 mice at 5 weeks of age (Charles River Japan, Inc.) were measured for their body weight. Immediately before drug administration, blood was collected by orbital puncture into heparinized capillary tubes and measured for baseline levels of blood ionized calcium and pH using a Ca^2+/pH analyzer (Model 348/Bayer Medical Ltd.) to give the corrected level of ionized calcium at pH 7.4 for each sample. The mice received subcutaneous administration of each drug at a dose of 5 mL/kg. […] At 1, 3 and 6 hours after administration, blood was collected by orbital puncture to monitor the time course of corrected blood ionized calcium levels.

The nature of data set [4]: Hypercalcemic effect of PEG-PTH(1-34) in normal female DDY mice. The method, then:
as §3, §4
The same experiment was repeated on female DDY mice at 5 weeks of age (Charles River Japan, Inc.). The mice received subcutaneous administration of each drug at a dose of 5 mL/kg. […] At 1, 3 and 6 hours after administration, blood was collected by orbital puncture to monitor the time course of corrected blood ionized calcium levels.

The nature of data set [5]: Pharmacokinetics and bioavailability in rats by subcutaneous route. The method, then:
as §1, §2

Where [6] appears, read: subcutaneous, 80 μg/mL at 1 mL/kg.

By AUC is commonly meant the area under the concentration-time curve, a measure of exposure. Higher therefore signals high exposure. Usually MRT stands for a mean duration of stay, worked out from the concentration-time curve. As a reminder, the Tmax is the time from dosing to the highest level. For the substance “5k PEG-hPTH(1-34): hPTH(1-34) reacted with mPEG 5 k-SPA, fraction having one 5 kDa PEG molecule per PTH molecule”, the “hypotensive effect after administration (in words)” value in data set [1] (anesthetized female SD rats) is listed as “mild hypotensive effect after administration”. The “hypotensive effect over doses, maximum blood pressure drop (in words)” value in data set [1] (anesthetized rats, hPTH(1-34) 12.5-50 μg/kg, 5 k PEG-PTH(1-34) 9.1-36.5 μg/kg) was “much weaker effect than hPTH(1-34) when administered at a higher dose”. In data set [2], this substance registered an AUC of 178.547 ng·h/mL, a Cltotal of 7.49 mL/min/kg, an MRT of 2.578 h and a t ½ of 5.706 h. The “increase in blood ionized calcium levels (in words)” value in data set [3] (150 nmol/kg sc) is “gradual increase in blood ionized calcium levels to reach the same maximum value as observed with hPTH(1-34)”. For the same substance, the “time of maximum increase in blood ionized calcium levels after administration” value in data set [3] (sc, hPTH(1-34) 50-500 nmol/kg, PEG-PTHs 150 nmol/kg) is 3 h. Also, the “increase in blood ionized calcium levels (in words)” value in data set [4] (150 nmol/kg sc) is given as “gradual increase in blood ionized calcium levels to reach the same maximum value as observed with 500 nmol/kg hPTH(1-34)”. In addition, in data set [4] (sc, hPTH(1-34) 50-500 nmol/kg, 5 k PEG-PTH(1-34) 150 nmol/kg), the “time of maximum increase in blood ionized calcium levels after administration” value is 3 h. This substance also displayed a BA in data set [5] (subcutaneous route) of about 71.0%. In data set [5] (setting [6]), the AUC was 126.793 ng·h/mL, the MRT is 5.706 h, the Tmax worked out at 0.813 h and the “t ½” value was determined as 6.758 h.

Source of the values: patent publication US20050148763A1, “Peg-binding pth or peg-binding pth derivative” (Chugai Seiyaku Kabushiki Kaisha, priority 2002, published 2005).
